Assay results from the supplement of paper PMC10567573.

B1: ZNF277 (parent)
chain: ILREELQKQRLREILEQQQQERND
B2: C22orf15 (parent)
chain: RGRHEQSPTSRPRKVSSLPPRSC

Variants of: B1
Test: protein stability index of a GFP-peptide fusion (GPS, HEK-293T) (PSI 1-6); higher = more stable
Conditions: c terminus: a fixed tail appended
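Also: lentivirally expressed fusions sorted by FACS into six bins by GFP to DsRed ratio, PSI derived from sequencing read proportions per bin multiplied by bin number.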

Protein stability index of substitutions, site by site:
Q20: L 4.05, E 5.03, G 4.22, T 3.29, N 4.3, H 3.94, S 4.37, C 4.2, A 4.93, M 3.96, W 3.18, K 4.51, Y 4.16, F 3.44, R 4.41, I 4.36, P 4.17, V 3.74
L15: V 4.37, S 4.99, E 4.99, W 4.14, Y 4.18, N 4.32, M 4.03, R 4.82, Q 5.14, F 4.22, I 4.48, C 4.62, T 4.67, A 5.04, G 4.94, D 4.77, P 4.54, H 5.11, K 4.37
D24: S 3.68, L 4.08, M 4.14, K 3.83, N 4.08, C 3.91, Y 3.7, E 4.12, H 3.16, W 2.73, I 3.64, Q 4.18, G 3.77, A 3.47, R 3.48, V 4.05, T 4.01, F 3.26, P 3.85
R22: W 3.72, F 3.81, T 4.76, C 4.48, I 3.81, Q 4.44, A 4.4, K 4.63, M 4.45, G 4.67, N 4.75, E 4.61, V 3.53, H 4.4, P 4.57, L 4.46, S 4.73, D 4.92, Y 4.54
I14: T 4.84, Y 4.34, V 4.25
E16: R 3.53, A 3.07, V 3.9, G 3.51, H 3.87, L 3.63, Q 3.77, N 3.89, W 2.87, S 4.04, P 4.8, D 4.61, M 3.81, T 4.71, I 3.74, K 3.83, F 3.66
Q18: V 3.83, T 3.57, E 4.93, C 3.31, F 4.37, P 4.68, G 4.57, D 4.46, R 4.97, K 3.72, N 4.37, M 3.59, L 3.37, I 2.52, A 3.98, S 3.99, Y 2.9, W 4.15
N23: C 3.98, D 4.96, T 4.37, A 4.53, E 4.59, H 4.04, I 4.02, W 3.22, Q 4.13, P 4.47, S 4.05, G 3.98, F 3.73, R 3.75, L 3.92, Y 3.56, M 4.14, V 3.89, K 4.1
Q17: M 3.88, T 4.16, L 4.29, I 3.33, P 4.2, A 3.83, R 3.77, D 4.54, E 4.82, G 4.25, S 4.63, W 3.49, H 4.38, F 3.87, N 4.51, C 3.6, V 4.22
Q19: E 3.98, A 4.13, Y 3.98, C 4.45, W 2.85, H 4.67, K 3.7, M 3.35, T 3.64, G 4.57, F 2.91, N 3.5, S 4.41, V 4.44, D 4.4, P 4.29, L 3.87
E21: V 3.2, G 4.04, D 4.22, W 2.95, Q 3.38, Y 3.73, P 3.04, A 4.39, R 2.69, K 4.26, N 3.9, C 3.04, H 4.61, L 3.52, M 3.73, I 2.94, S 4.41, F 3.4, T 4.09

Variants of: B2
Test: as above
Conditions: c terminus: native

Protein stability index, by site and new letter:
P8: G 2.55, Q 2.65, H 3.48, K 3.28, C 3.78, N 2.71, R 4.11
S16: K 2.94, T 2.07, A 1.95, M 2.63, D 2.87, Y 3.44, F 3.32, V 3.6, H 2.57, I 1.98, N 2.53, W 1.81, P 2.77, Q 2.92
R1: V 1.73, M 3.56, Y 3.26, D 2.81, W 3.77, A 3.06
R13: S 2.15, W 1.54, Q 1.47, Y 1.49, E 2.88, D 4.32, L 3.56, T 2.73, M 3.68, H 3.08, F 2.43, C 3.56
H4: C 2.55, A 1.91, T 3.06, N 3.03, F 2.91, R 3.58, V 2.38, I 3.17
K14: I 2.67, Y 2.54, Q 4.04, D 3.71, F 3.52, G 3.13, T 4.73, W 1.93, V 3.29, N 1.24, E 3.42
S17: G 1.99, E 3.27, K 1.93, I 2.3, N 2.99, M 1.89
P12: T 2.55, H 2.55, G 1.4, Q 3.88, D 2.8, M 1.89, Y 3.13, W 2.55
T9: C 1.52, K 2.44, R 3.3, S 2.58, H 1.83, G 2.07, Y 2.35, A 3.73
R11: T 2.51, Q 3.32, A 2.33, N 2.35, K 3.4, S 2.31, P 3.98, W 5, G 2.87
V15: C 2.52, L 3.74, S 2.1, T 1.82, F 3.96, N 2.71, K 3.42, G 2.29, P 4.67, H 4.12, Q 2.22, D 1.97, R 2.8
Q6: L 2.54, S 1.79, T 1.97, Y 2.05, V 3.92, W 4.38, I 4.15
S10: A 1.64, V 2.85, H 1.87, C 2.51, T 2.83, K 1.93, F 1.99, P 1.61, D 1.09, R 1.8
E5: L 2.09, K 2.68, P 2.93, Y 4.38, F 2.19, N 2.19, R 2.19
S7: R 2.69, N 2.44, F 2.94, D 2.76, Y 2.32, V 3.68
R3: V 2.05, H 2.76, K 2.27, C 3.01, L 4.27, I 3.03
G2: E 1.27, F 2.04, S 3.1, C 1.57, M 1.9, I 2.64, D 2.01, Y 3.84, H 1.16, R 2.96, Q 2.2
